Measurements published in patent US20170260575A1.
[ ]: non-standard residue; d: D form.

Target: integrin receptors on NIH/3T3 fibroblast cells
Assay: cell-based or functional assay

cyclo(RGD[dF]K) (also: biotin-labelled (cRGDfK-biotin), bound via streptavidin) [cyclic Arg-Gly-Asp-d-Phe-Lys (cRGDfK) peptide]
decrease in Cy3B fluorescence under individual cells, Ttol=12 pN duplexes: 13.7% | decrease in Cy3B fluorescence under individual cells, Ttol=56 pN duplex: 6.5% | fold decrease in MCR signal of controls (duplexes lacking cRGDfK, scrambled duplexes) against the 12 pN cRGDfK surface: 150 fold
